The values that follow come from IntAct's records for PubMed 28062662.

B1: Glutaryl-CoA dehydrogenase, mitochondrial (Homo sapiens), Q92947 (parent)
chain: MALRGVSVRLLSRGPGLHVLRTWVSSAAQTEKGGRTQSQLAKSSRPEFDWQDPLVLEEQLTTDEILIRDTFRTYCQERLMPRILLANRNEVFHREIISEMGELGVLGPTIKGYGCAGVSSVAYGLLARELERVDSGYRSAMSVQSSLVMHPIYAYGSEEQRQKYLPQLAKGELLGCFGLTEPNSGSDPSSMETRAHYNSSNKSYTLNGTKTWITNSPMADLFVVWARCEDGCIRGFLLEKGMRGLSAPRIQGKFSLRASATGMIIMDGVEVPEENVLPGASSLGGPFGCLNNARYGIAWGVLGASEFCLHTARQYALDRMQFGVPLARNQLIQKKLADMLTEITLGLHACLQLGRLKDQDKAAPEMVSLLKRNNCGKALDIARQARDMLGGNGISDEYHVIRHAMNLEAVNTYEGTHDIHALILGRAITGIQAFTASK
partner: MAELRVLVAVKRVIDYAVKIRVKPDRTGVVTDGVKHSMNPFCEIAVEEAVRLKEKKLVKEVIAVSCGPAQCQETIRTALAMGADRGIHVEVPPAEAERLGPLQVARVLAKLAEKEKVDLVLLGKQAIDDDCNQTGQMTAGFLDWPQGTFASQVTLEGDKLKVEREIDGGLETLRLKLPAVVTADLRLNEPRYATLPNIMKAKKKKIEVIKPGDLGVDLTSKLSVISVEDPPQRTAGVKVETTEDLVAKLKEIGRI
B2: Glutaryl-CoA dehydrogenase, mitochondrial (Homo sapiens), Q92947 (parent)
chain: B1 chain
partner: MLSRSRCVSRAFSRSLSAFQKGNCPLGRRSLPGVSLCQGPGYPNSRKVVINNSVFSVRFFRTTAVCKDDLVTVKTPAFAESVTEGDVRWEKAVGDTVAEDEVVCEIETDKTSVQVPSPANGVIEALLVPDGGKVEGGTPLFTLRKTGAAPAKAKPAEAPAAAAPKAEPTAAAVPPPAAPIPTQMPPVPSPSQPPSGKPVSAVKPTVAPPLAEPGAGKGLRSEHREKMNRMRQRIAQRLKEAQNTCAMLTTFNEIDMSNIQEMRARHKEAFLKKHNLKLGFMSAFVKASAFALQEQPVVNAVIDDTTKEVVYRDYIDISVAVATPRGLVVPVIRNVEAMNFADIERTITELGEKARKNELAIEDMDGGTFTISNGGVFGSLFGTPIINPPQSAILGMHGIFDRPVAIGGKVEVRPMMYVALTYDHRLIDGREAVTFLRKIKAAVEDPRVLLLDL

In one test the parent is B1. The note with it: with etfb_human ETFB.
Take MALRGVSVRLLSRGPGLHVLRTWVSSAAQTEKGGRTQSQLAKSSRPEFDWQDPLVLEEQLTTDEILIRDTFRTYCQERLMPRILLANRNEVFHREIISEMGELGVLGPTIKGYGCAGVSSVAYGLLARELERVDSGYRSAMSVQSSLVMHPIYAYGSEEQRQKYLPQLAKGELLGCFGLTEPNSGSDPSSMETRAHYNSSNKSYTLNGTKTWITNSPMADLFVVWARCEDGCIRGFLLEKGMRGLSAPRIQGKFSLRASATGMIIMDGVEVPEENVLSGASSLGGPFGCLNNARYGIAWGVLGASEFCLHTARQYALDRMQFGVPLARNQLIQKKLADMLTEITLGLHACLQLGRLKDQDKAAPEMVSLLKRNNCGKALDIARQARDMLGGNGISDEYHVIRHAMNLEAVNTYEGTHDIHALILGRAITGIQAFTASK [P278S]: the “effect of a mutation on the interaction” value is recorded as “increasing interaction strength”.
Same read-out and setting: next, MALRGVSVRLLSRGPGLHVLRTWVSSAAQTEKGGRTQSQLAKSSRPEFDWQDPLVLEEQLTTDEILIRDTFRTYCQERLMPRILLANRNEVFHREIISEMGELGVLGPTIKGYGCAGVSSVAYGLLARELERVDSGYRSAMSVQSSLVMHPIYAYGSEEQRQKYLPQLAKGELLGCFGLTEPNSGSDPSSMETRAHYNSSNKSYTLNGTKTWITNSPMADLFVVWARCEDGCIRGFLLEKGMRCLSAPRIQGKFSLRASATGMIIMDGVEVPEENVLPGASSLGGPFGCLNNARYGIAWGVLGASEFCLHTARQYALDRMQFGVPLARNQLIQKKLADMLTEITLGLHACLQLGRLKDQDKAAPEMVSLLKRNNCGKALDIARQARDMLGGNGISDEYHVIRHAMNLEAVNTYEGTHDIHALILGRAITGIQAFTASK [G244C]: “increasing interaction strength”; MALRGVSVRLLSRGPGLHVLRTWVSSAAQTEKGGRTQSQLAKSSRPEFDWQDPLVLEEQLTTDEILIRDTFRTYCQERLMPRILLANRNEVFHREIISEMGELGVLGPTIKGYGCAGVSSVAYGLLARELERVDSGYRSAMSVQSSLVMHPIYAYGSEEQRQKYLPQLAKGELLGCFGLTEPNSGSDPSSMETRAHYNSSNKSYTLNGTKTWITNSPMADLFVVWARCEDGCIRGFLLEKGMRGLSAPRIQGKFSLRASATGMIIMDGVEVPEENVLPGASSLGGPFGCLNNARYGIAWGVLGASEFCLHTARQYALDRMQFGVPLARNQLIQKKLADMLTEITLGLHACLQLGHLKDQDKAAPEMVSLLKRNNCGKALDIARQARDMLGGNGISDEYHVIRHAMNLEAVNTYEGTHDIHALILGRAITGIQAFTASK [R355H]: “increasing interaction strength”.
Same read-out and setting: the result for MALRGVSVRLLSRGPGLHVLRTWVSSAAQTEKGGRTQSQLAKSSRPEFDWQDPLVLEEQLTTDEILIRDTFRTYCQERLMPRILLANRNEVFHREIISEMGELGVLGPTIKGYGCAGVSSVAYGLLARELERVDSGYRSAMSVQSSLVMHPIYAYGSEEQRQKYLPQLAKGELLGCFGLTEPNSGSDPSSMETRAHYNSSNKSYTLNGTKTWITNSPMADLFVVWARCEDGCIRGFLLEKGMRGLSAPRIQGKFSLRASATGVIIMDGVEVPEENVLPGASSLGGPFGCLNNARYGIAWGVLGASEFCLHTARQYALDRMQFGVPLARNQLIQKKLADMLTEITLGLHACLQLGRLKDQDKAAPEMVSLLKRNNCGKALDIARQARDMLGGNGISDEYHVIRHAMNLEAVNTYEGTHDIHALILGRAITGIQAFTASK [M263V] reads “increasing interaction strength”; that for MALRGVSVRLLSRGPGLHVLRTWVSSAAQTEKGGRTQSQLAKSSRPEFDWQDPLVLEEQLTTDEILIRDTFRTYCQERLMPRILLANRNEVFHREIISEMGELGVLGPTIKGYGCAGVSSVAYGLLARELERVDSGYRSAMSVQSSLVMHPIYAYGSEEQRQKYLPQLAKGELLGCFGLTEPNSGSDPSSMETRAHYNSSNKSYTLNGTKTWITNSPMADLFVVWARCEDGCIRGFLLEKGMRGLSALRIQGKFSLRASATGMIIMDGVEVPEENVLPGASSLGGPFGCLNNARYGIAWGVLGASEFCLHTARQYALDRMQFGVPLARNQLIQKKLADMLTEITLGLHACLQLGRLKDQDKAAPEMVSLLKRNNCGKALDIARQARDMLGGNGISDEYHVIRHAMNLEAVNTYEGTHDIHALILGRAITGIQAFTASK [P248L], “increasing interaction strength”.

The variants in the next test derive from B2. The note with it: with odo2_human DLST.
On to MALRGVSVRLLSRGPGLHVLRTWVSSAAQTEKGGRTQSQLAKSSRPEFDWQDPLVLEEQLTTDEILIRDTFRTYCQERLMPRILLANCNEVFHREIISEMGELGVLGPTIKGYGCAGVSSVAYGLLARELERVDSGYRSAMSVQSSLVMHPIYAYGSEEQRQKYLPQLAKGELLGCFGLTEPNSGSDPSSMETRAHYNSSNKSYTLNGTKTWITNSPMADLFVVWARCEDGCIRGFLLEKGMRGLSAPRIQGKFSLRASATGMIIMDGVEVPEENVLPGASSLGGPFGCLNNARYGIAWGVLGASEFCLHTARQYALDRMQFGVPLARNQLIQKKLADMLTEITLGLHACLQLGRLKDQDKAAPEMVSLLKRNNCGKALDIARQARDMLGGNGISDEYHVIRHAMNLEAVNTYEGTHDIHALILGRAITGIQAFTASK [R88C], for which the “effect of a mutation on the interaction” value was “increasing interaction strength”.
The same measure, in the same setting: next, MALRGVSVRLLSRGPGLHVLRTWVSSAAQTEKGGRTQSQLAKSSRPEFDCQDPLVLEEQLTTDEILIRDTFRTYCQERLMPRILLANRNEVFHREIISEMGELGVLGPTIKGYGCAGVSSVAYGLLARELERVDSGYRSAMSVQSSLVMHPIYAYGSEEQRQKYLPQLAKGELLGCFGLTEPNSGSDPSSMETRAHYNSSNKSYTLNGTKTWITNSPMADLFVVWARCEDGCIRGFLLEKGMRGLSAPRIQGKFSLRASATGMIIMDGVEVPEENVLPGASSLGGPFGCLNNARYGIAWGVLGASEFCLHTARQYALDRMQFGVPLARNQLIQKKLADMLTEITLGLHACLQLGRLKDQDKAAPEMVSLLKRNNCGKALDIARQARDMLGGNGISDEYHVIRHAMNLEAVNTYEGTHDIHALILGRAITGIQAFTASK [W50C]: “increasing interaction strength”.
